From patent EP4740958A1 (QILU PHARMACEUTICAL CO., LTD., dated 2026)

Target: T1, recombinant human CCR8 protein (human, UniProt P51685 1-355, limits assumed)
T1 construct: Recombinant protein fixed on a CM5 chip by amino coupling (about 15 RU); also called human CCR8 recombinant protein
Experiment: SPR (Biacore 8K), CCR8 fixed on CM5 chip by amino coupling, antibody 1 nM-31.25 pM as analyte, 1:1 model

T1 sequence (P51685 whole entry): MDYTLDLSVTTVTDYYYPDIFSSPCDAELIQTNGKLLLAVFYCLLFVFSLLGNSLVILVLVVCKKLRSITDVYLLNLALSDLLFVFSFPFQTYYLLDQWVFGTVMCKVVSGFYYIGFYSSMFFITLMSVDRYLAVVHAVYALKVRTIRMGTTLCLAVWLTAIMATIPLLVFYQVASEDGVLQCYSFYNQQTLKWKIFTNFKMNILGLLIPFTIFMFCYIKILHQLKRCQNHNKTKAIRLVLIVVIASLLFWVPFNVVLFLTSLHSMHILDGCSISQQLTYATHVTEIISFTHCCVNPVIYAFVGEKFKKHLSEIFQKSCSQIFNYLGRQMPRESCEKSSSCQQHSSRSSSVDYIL

Kd: 7.77 pM
koff: 0.000131 s⁻¹
kon: 1.69e+07 M⁻¹ s⁻¹
B1: anti-human CCR8 monoclonal antibody J06 (antibody, human IgG1, kappa, V domains shown)
VH: EVQLVESGGGVVQPGRSLRLSCAASGFPFEPFAMNWVRQAPGKGLEWVARIRSKANNYATYYADSVKDRFAISRDNSKRTLYLLMHSLRFEDTAVYYCVRGRENNYGYAMDYWGQGTTVTVSS
VL: DVVMTQSPPSLPVTLGQSASISCRSSQSLLHSNGITYLYWFLQRPGQSPRLLIYRMSNLASGVPDRFSGSGSGTDFTLRISRVEAEDVGVYYCMQHLTYPFTFGIGTKVEIKR
notes: also called J06 preparation; anti-CCR8 Mab 1187
